# Assay results published in patent US20190271704.
# T1: NE nanosensor with heptafluorobutylamine reporter (peptide-PFC conjugated to a 40 kDa 8-arm PEG scaffold)
# T1 chain: CKKKXXXX
# T2: NE nanosensor with pentafluoropropylamine reporter (peptide-PFC conjugated to a 40 kDa 8-arm PEG scaffold)
# T2 chain: CKKKXXXX
# T3: NE peptide substrate with acetylated N-terminal CKKK-PEG4 linker and C-terminal heptafluorobutylamine reporter (peptide-PFC) (not fully specified)
# T3 chain: CKKKXXXX
# T4: NE peptide substrate with acetylated N-terminal CKKK-PEG4 linker and C-terminal pentafluoropropylamine reporter (peptide-PFC) (not fully specified)
# T4 chain: CKKKXXXX
# B1: neutrophil elastase (NE) (protein)
# chain: IVGGRRARPHAWPFMVSLQLRGGHFCGATLIAPNFVMSAAHCVANVNVRAVRVVLGAHNLSRREPTRQVFAVQRIFENGYDPVNLLNDIVILQLNGSATINANVQVAQLPAQGRRLGNGVQCLAMGWGLLGRNRGIASVLQELNVTVVTSLCRRSNVCTLVRGRQAGVCFGDSGSPLVCNGLIHGIASFVRGGCASGLYPDAFAPVAQFVNWIDSIIQ
# Legend:
# [1] = molecular target: T1, NE nanosensor with …
# [2] = molecular target: T2, NE nanosensor with …
# [3] = molecular target: T3, NE peptide substrate with acetylated …
# [4] = molecular target: T4, NE peptide substrate with acetylated …
protein,measurement,setting,value
B1,kcat/Km (Michaelis-Menten kinetics of substrate cleavage),[1],kcat/Km values were on the order of 10^5 M^-1s-^-1
same,kcat/Km (Michaelis-Menten kinetics of substrate cleavage),[2],kcat/Km values were on the order of 10^5 M^-1s-^-1
same,PFC release from the peptide substrate (real-time vapor analysis mass spectrometry),[3],cleaved specifically by NE
same,PFC release from the peptide substrate (real-time vapor analysis mass spectrometry),[4],cleaved specifically by NE
